This note sets out measurements from paper PMC9173640, “PI Kinase-EhGEF2-EhRho5 axis contributes to LPA stimulated macropinocytosis in Entamoeba histolytica” (PLoS Pathogens, 2022).

The assay deals with T1, GST-RBD (Rho binding domain of mRhotekin) ( (printed as mRhotekin), UniProt Q8C6B2 17-98).
T1 construct: also called RBD-GST; source: E. coli BL21(DE3), purified (GST-sepharose beads); construct a gift from Dr. Richard Cerione
T1 sequence (looked up): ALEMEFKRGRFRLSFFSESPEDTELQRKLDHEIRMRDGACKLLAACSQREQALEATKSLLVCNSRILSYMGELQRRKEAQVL
Put plainly: pull-down; GST-RBD/GST-PBD bound to sepharose beads incubated 2 hrs at 4°C with lysates (10 mM MgCl2, 5 mM EDTA) of serum starved HA-EhRho5 trophozoites, with or without 15 uM LPA for 15 mins, followed by 100 nM wortmannin or DMSO; blot with anti-HA. The following applies: one partner purified.

B1: HA-EhRho5 (natural protein)
chain: not shown
notes: EhRho5 (EhRacD), Rho family GTPase of Entamoeba histolytica, Acc no; EHI_012240; PCR primers run from the ATG to the stop codon; cloned in EhEx-HA with SmaI-XhoI; Expressed under the amoebic cysteine synthase promoter; also called EhRacD; source: E. histolytica HM1:IMSS trophozoites, stably transfected (EhEx-HA), in lysate
For the molecule B1, the “fold increase in binding after LPA treatment against untreated trophozoites” value came to 7 fold.
